This is an account of results in publication PMC314469, “Protein Interaction Networks by Proteome Peptide Scanning” (PLoS Biology, 2004).

What all share (assay): SPOT array
Experiment [1] concerns the target T1, Yhr016c SH3 (YSC84_YEAST), P32793.
T1 chain: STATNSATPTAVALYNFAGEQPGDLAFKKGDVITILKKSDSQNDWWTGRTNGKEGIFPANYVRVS

The target of experiment [2] is T2, Rvs167 SH3 (RV167_YEAST), P39743.
T2 chain: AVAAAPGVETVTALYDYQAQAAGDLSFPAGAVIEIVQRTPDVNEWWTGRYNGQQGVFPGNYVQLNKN

Experiment [3] concerns the target T3, Boi1 SH3 (BOI1_YEAST), P38041.
T3 chain: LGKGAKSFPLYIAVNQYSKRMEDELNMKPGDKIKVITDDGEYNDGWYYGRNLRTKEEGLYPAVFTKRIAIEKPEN

For experiment [4], the target named is T4, Yfr024 SH3 (LSB3_YEAST), P43603.
T4 chain: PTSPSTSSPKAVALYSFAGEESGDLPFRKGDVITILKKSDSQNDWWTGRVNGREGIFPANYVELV

Experiment [5] addresses T5, Boi2 SH3 (BOI2_YEAST), P39969.
T5 chain: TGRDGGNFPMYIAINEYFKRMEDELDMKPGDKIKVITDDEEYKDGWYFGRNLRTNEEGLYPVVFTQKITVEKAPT

For TSAPDIPPRSPNRN [YDR239C 54-67], the normalised SPOT signal, Boehringer light units (BLU); mean over the file's lines of this peptide stood at 14800 in experiment [1]; 26700 in experiment [2]; 65600 in experiment [3]; 14500 in experiment [4]; 35900 in experiment [5].

Take VAKPKKPARPTMST [YNL298W 513-526]: the normalised SPOT signal, Boehringer light units (BLU); mean over the file's lines of this peptide stood at 4950 in experiment [1]; 86.9 in experiment [2]; 71.1 in experiment [3]; 9080 in experiment [4]; 77.1 in experiment [5].

As to VDAPINPTKILTFI [YBR163W 375-388], the normalised SPOT signal, Boehringer light units (BLU); mean over the file's lines of this peptide is 34 in experiment [1]; 67.9 in experiment [2]; 52.9 in experiment [3]; 0 in experiment [4]; 69.3 in experiment [5].

As for VSPPSFPSRRSETS [YPL006W 878-891], the normalised SPOT signal, Boehringer light units (BLU); mean over the file's lines of this peptide in experiment [1] was determined as 42100; in experiment [2], 1730; in experiment [3], 703; in experiment [4], 40300; in experiment [5], 117.

Consider VENPFLPAKEERTG [YIL115C 910-923], for which the normalised SPOT signal, Boehringer light units (BLU); mean over the file's lines of this peptide in experiment [1] was found to be 188; in experiment [2], 0; in experiment [3] it was 7.6; in experiment [4], 82.3; in experiment [5], 15.7.

Consider VAPPPLPNRQLPNL [YNL094W 505-518], for which the normalised SPOT signal, Boehringer light units (BLU); mean over the file's lines of this peptide in experiment [1] came out at 27300; in experiment [2], 32500; in experiment [3], 1470; in experiment [4], 32400; in experiment [5] it was 73.2.

Take TPPPVEPLKTKDLA [YBR284W 102-115]: the normalised SPOT signal, Boehringer light units (BLU); mean over the file's lines of this peptide in experiment [1] amounted to 146; in experiment [2] it was 56.7; in experiment [3], 94.4; in experiment [4], 36.2; in experiment [5], 43.4.

For the molecule TSTPPLPRRRATTS [YGL181W 247-260], the normalised SPOT signal, Boehringer light units (BLU); mean over the file's lines of this peptide is 122000 in experiment [1]; 55700 in experiment [2]; 16400 in experiment [3]; 36200 in experiment [4]; 1870 in experiment [5].

For the molecule TPLPFAPNKSSKKT [YIR023W 846-859], the normalised SPOT signal, Boehringer light units (BLU); mean over the file's lines of this peptide in experiment [1] was 100; in experiment [2], 28.9; in experiment [3], 181; in experiment [4] it was 315; in experiment [5] it was 50.4.

In the case of TSSPPLPPRQNVAT [YPL249C 279-292], the normalised SPOT signal, Boehringer light units (BLU); mean over the file's lines of this peptide in experiment [1] amounted to 47000; in experiment [2] it was 16700; in experiment [3] it was 37.2; in experiment [4], 25300; in experiment [5] it was 30.4.

For the molecule TQAPLAPSRNQENE [YPR055W 308-321], the normalised SPOT signal, Boehringer light units (BLU); mean over the file's lines of this peptide was found to be 624 in experiment [1]; 38 in experiment [2]; 31.7 in experiment [3]; 1200 in experiment [4]; 4.1 in experiment [5].

For VDFPIFPRRFAKVE [YJL091C 152-165], the normalised SPOT signal, Boehringer light units (BLU); mean over the file's lines of this peptide in experiment [1] stood at 1680; in experiment [2] it was 512; in experiment [3], 2050; in experiment [4] it was 16100; in experiment [5], 135.

In the case of TRRPHHPLKQQSTN [YIL152W 34-47], the normalised SPOT signal, Boehringer light units (BLU); mean over the file's lines of this peptide in experiment [1] was 154; in experiment [2] it was 70.4; in experiment [3], 87.5; in experiment [4], 411; in experiment [5] it was 26.4.

For the molecule TTRPAPPSKAKDVA [YAL011W 347-360], the normalised SPOT signal, Boehringer light units (BLU); mean over the file's lines of this peptide in experiment [1] amounted to 251; in experiment [2], 125; in experiment [3], 61.3; in experiment [4] it was 767; in experiment [5], 72.

As for TSKPSLPEKPQKLR [YPR171W 333-346], the normalised SPOT signal, Boehringer light units (BLU); mean over the file's lines of this peptide was found to be 319 in experiment [1]; 63.1 in experiment [2]; 252 in experiment [3]; 11600 in experiment [4]; 19.2 in experiment [5].

Consider TTVPTKPKKPHDIS [YKR084C 145-158], for which the normalised SPOT signal, Boehringer light units (BLU); mean over the file's lines of this peptide in experiment [1] is 114; in experiment [2], 18.4; in experiment [3], 81.6; in experiment [4] it was 1540; in experiment [5], 22.9.

Regarding TTAPRGPKKAQPAQ [YGR097W 176-189], the normalised SPOT signal, Boehringer light units (BLU); mean over the file's lines of this peptide in experiment [1] was 264; in experiment [2], 89.5; in experiment [3], 138; in experiment [4], 169; in experiment [5], 43.9.

For the molecule VDPPFMPFRDAGYS [YFR028C 120-133], the normalised SPOT signal, Boehringer light units (BLU); mean over the file's lines of this peptide in experiment [1] is -0; in experiment [2], 23.3; in experiment [3] it was 70.9; in experiment [4], 579; in experiment [5], 37.7.

For the molecule TRRPTNPFRVISVS [YNL166C 314-327], the normalised SPOT signal, Boehringer light units (BLU); mean over the file's lines of this peptide is 566 in experiment [1]; 218 in experiment [2]; 34.6 in experiment [3]; 1890 in experiment [4]; 49 in experiment [5].
